{"source": "paper PMC5514143", "about": "“A Drug Carrier for Sustained Zero-Order Release of Peptide Therapeutics” (Scientific Reports, 2017)", "key": {"[1]": {"assay": "Circular dichroism of PEG-sCT released from the film", "format": "physicochemical", "details": "CD 190-260 nm, room temperature, 0.1 cm path cell; release media", "procedure": "UV-vis absorption spectra were recorded on a UV-1800 spectrophotometer (SHIMADZU, Japan). Fourier transform infrared (FTIR) spectra were measured on Bio-Rad FTS-6000 spectrometer. CD measurement was performed on a Biologic MOS-450 (Claix, France) at room temperature in a 0.1 cm path cell. The CD signals were recorded from 190 to 260 nm using a bandwidth of 4.0 nm and a scanning rate of 50 nm/min. SEM images were recorded on an FEI NanoSEM 430 Scanning Electron Microscope. Atomic force microscopy (AFM) images were acquired using a Benyuan CSPM5000s scanning probe microscope in tapping mode."}, "[2]": {"details": "administered via injection; cited from earlier work", "source_text": "The key goal of a release system is to maintain the plasma drug concentration within the therapeutic window for a prolonged period of time. For zero-order release carriers, as the drug is released at constant rate, it will be possible to maintain the plasma drug concentration constant. This will avoid a plasma drug concentration which is too high to exert toxic effects, or too low to fail to exert therapeutic effects, and therefore lead to the best outcome. As expected, for rats with implanted PEG-sCT/TA films, the plasma concentration of PEG-sCT remains almost constant (Fig. 7A). When a 20 bi ..."}}}
{"substance": "PEGylated salmon calcitonin [PEG-sCT]", "values": [{"measurement": "secondary structure of PEG-sCT released from the film (CD spectra vs native drug)", "setting": "[1]", "value": "remains unchanged"}, {"measurement": "half-life of PEG-sCT", "setting": "[2]", "value": "~ 83 min"}]}
